Laboratory results reported in patent US20230272086A1 (CHIA TAI TIANQING PHARMACEUTICAL GROUP, published 2023).
Where a chain is given by its changes, count along the chain named.

T1: cynomolgus monkey ST2 on HEK293T-Cyno-ST2-NFκB-Luciferase cells (cynomolgus monkey, UniProt Q01638 19-556 (human entry))
T1 chain: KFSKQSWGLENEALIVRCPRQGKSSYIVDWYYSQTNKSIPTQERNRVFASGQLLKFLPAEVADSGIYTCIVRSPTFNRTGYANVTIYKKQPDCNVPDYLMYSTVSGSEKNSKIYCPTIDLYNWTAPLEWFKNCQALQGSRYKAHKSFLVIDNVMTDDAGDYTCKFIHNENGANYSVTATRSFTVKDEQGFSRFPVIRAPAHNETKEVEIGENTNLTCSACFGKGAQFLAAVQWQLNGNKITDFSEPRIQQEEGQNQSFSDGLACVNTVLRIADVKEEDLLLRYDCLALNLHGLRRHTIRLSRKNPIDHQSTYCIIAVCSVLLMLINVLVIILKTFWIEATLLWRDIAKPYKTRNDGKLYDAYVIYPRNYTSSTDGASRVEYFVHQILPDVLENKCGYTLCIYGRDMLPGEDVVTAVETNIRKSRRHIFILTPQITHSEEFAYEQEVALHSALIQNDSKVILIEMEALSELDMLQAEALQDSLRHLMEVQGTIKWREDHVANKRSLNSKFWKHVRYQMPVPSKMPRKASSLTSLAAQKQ

B1: Chimeric 7D1 (antibody, human IgG2, kappa, V domains shown)
VH: QVQLQQSGAELVRPGASVTLSCKASGYTFTDYEMHWVKQTPVHGLDWIGTIDPETGDTAYNQKFKGRATLTADKSSSTAYMELSSLTSEDSAVYYCTRYSYTNSPYGMDYWGQGTSVTVSS
VL: DVVMTQTPKFLLVSAGDRVTITCKASQSVSNDVAWYQQKPGQSPKLLIYYASNRYTGVPDRFTGSGYGTDFTFTINTVQAEDLAVYFCQQDYSSPYTFGGGTKLEIKR
notes: also called xi7D1
B2: Chimeric 31C8 (antibody, human IgG2, kappa, V domains shown)
VH: QVQLQQSGPELVRPGASVTLSCKASGYIFIDSEMHWVKQTPVHGLEWIGAIDPETGDTVYNQKFKGKATLTADKSSSTASMELSSLTSEDSAVYYCTGSTTDYYFAYWGQGTTLTVSS
VL: DIVMTQAAFSNPVTLGTSASISCRSSKSLLHSNGIIYLYWYLQKPGQSPQLLIYQMSNLASGVPDRFSSSGSGTDFTLRISRVEAEDVGVYYCAQNLELPFTFGSGTKLEIKR
notes: also called xi31C8
B3: Chimeric 3C6 (antibody, human IgG2, kappa, V domains shown)
VH: QVQLQQSGAEVVRPGASVTLSCKASDYTITDYEMHWVKQTPVHGLEWIGAIDPETGDTAYSQNFKGKATLTADESSSTAYMELSSLTSEDSAVYYCSRSATDYYFASWGQGTTLTVSS
VL: B2 VL with F9I, I21M, I36T, Q47H, R79K
notes: also called xi3C6
B4: Chimeric 8F4 (antibody, human IgG2, kappa, V domains shown)
VH: B2 VH with P9A, Y27H, I30T, S32Y, H35Q, I51F, V59A, S80Y, T97S, T113S
VL: B2 VL with I2V, A7T
notes: also called xi8F4
B5: Chimeric 26A1 (antibody, human IgG2, kappa, V domains shown)
VH: B2 VH with P9A, G26D, I30T, M34I, P41L, V59A, S80Y, D90G, T97S, Y103C
VL: B2 VL
notes: also called xi26A1
B6: RG6149 (antibody Ab2 in CN104334582, prepared in-house) (antibody, human IgG2, kappa, V domains shown)
VH: EVQLVQSGAEVKKPGESLKISCKGSGYSFTNYWIGWVRQMPGKGLEWMGIIYPGNSDTRFSPSFQGQVTISADKSITTAYLQWSSLKASDTAMYYCARHGTSSDYYGLDVWGQGTTVTVSS
VL: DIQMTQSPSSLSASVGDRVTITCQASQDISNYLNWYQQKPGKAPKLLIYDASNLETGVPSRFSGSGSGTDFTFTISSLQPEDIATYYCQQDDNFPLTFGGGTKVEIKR
notes: Control anti-ST2 antibody
B7: Chimeric 17E2 (antibody, human IgG2, kappa, V domains shown)
VH: QVQLQQSGAELVRPGASVTLSCKASGYTFTDYEMHWVKQTPVLGLEWIGAIDPETGDTAYNQKFKGKATLTADKSSSTAYMELSSLASEDSAVYYCIRVDSNYDYFDYWGQDTTLTVSS
VL: DIVLTQSPPILSASPGEKVTMTCRASSSVSYMHWYQQKPGSSPKPWIYDTSNLASGVPARFSGSGSGTSYSLTISRVEAEDAATYYCQQWSSNPLTFGAGTKLELKR
notes: also called xi17E2

Tests used:
[1] = target: T1, cynomolgus monkey ST2 on …; assay: flow cytometry on HEK293T-Cyno-ST2-NFκB-Luciferase cells
Description: The binding capacity of the anti-ST2 antibodies to hST2-overexpressing cell lines and cyno-ST2-overexpressing cell lines was analyzed using an FACS-based method through binding assays with the hST2 (SEQ ID NO:1)-overexpressing HEK293T cell line (HEK293T-hST2-NFκB-Luciferase) and the cynomolgus monkey ST2 (SEQ ID NO: 10)-overexpressing HEK293T cell line (HEK293T-Cyno-ST2-NFKB-Luciferase). HEK293 cells were transfected with the pLenti6.3- hST2 plasmid and the pLenti6.3-NFκB-luciferasae plasmid using a lentiviral transfection system to construct the cell line HEK293T-hST2-NFκB-Luciferase. HEK293T cells were transfected with the pLenti6.3-cynoST2 plasmid and the pLenti6.3-NFκB-luciferasae plasmid to construct the cell line HEK293T-Cyno-ST2-NFκB-Luciferase.
3 × 10⁵ HEK293T-hST2-NFκB-Luciferase or HEK293T-Cyno-ST2-NFκB-Luciferase cells were added to a 96-well culture plate. Serially diluted anti-ST2 antibodies (serially diluted 4-fold from an initial concentration of 667 nM to 8 concentrations in binding assays with the HEK293T-hST2-NFκB-Luciferase cells; serially diluted 4-fold from an initial concentration of 400 nM to 8 concentrations in binding assays with the HEK293T-Cyno-ST2-NFκB-Luciferase cells) were added to the cell suspensions. After the plate was incubated at room temperature for 60 min, the cells were washed 3 times with PBS. […] The cells were washed 3 times with PBS and resuspended in 100 µ1L of PBS, and then the fluorescence signals were analyzed and detected using a flow cytometer (BD, Accuri C6). The binding capacity of the anti-ST2 antibodies to hST2 and cyno-ST2 on the cell line surfaces was measured in terms of the mean fluorescence intensity (MFI) of staining. The data were analyzed using GraphPad Prism5, and the EC₅₀ values were calculated. The EC₅₀ values for the binding of the anti-ST2 chimeric antibodies to hST2 and Cyno-ST2 at the cellular level are shown in Table 8 and FIGS. 7-8.

[2] = target: recombinant protein containing hST2 extracellular domain with human antibody heavy chain Fc tag (hST2-ECD-hFc) (human); assay: competition ELISA, coated hST2-ECD-hFc, antibody then biotin-labeled hIL33 Avitag (competitor)
Description: Whether the anti-ST2 antibodies were able to block the binding of hIL33 to hST2 was determined based on ELISA. A high-adsorption 96-well plate was coated with 2 µg/mL hST2-ECD-hFc at 100 µL/well and incubated overnight at 4° C. After the antigen not adsorbed was well washed off, the non-specific binding sites were blocked with a blocking buffer (PBST containing 1% bovine serum albumin). After the plate was washed three times with a washing buffer (PBST, PBS containing 0.05% (v/v) Tween 20), the anti-ST2 antibodies (serially diluted 2-fold from an initial concentration of 66.67 nM to 8 concentrations) were added at 100 µL/well, and the plate was incubated at 37° C. for 1 h After the plate was washed 3 times with the washing buffer, 100 µL of biotin-labeled hIL33 Avitag (with a concentration of 0.1 µg/mL) was added to each well, and the plate was incubated at 37° C. for 1 h. After the plate was washed 3 times with the washing buffer, a 1:1000 diluted secondary antibody Avidin HRP (Jackson immunoresearch, 016-030-084) was added at 100 µL/well, and the plate was incubated at room temperature for 1 h After the plate was washed with the washing buffer, the substrate TMB solution (Thermo, 00-4201-56) was added at 100 µL/well, and the plate was incubated at room temperature for 3 min. 50 µL of a stop solution (2 N H₂SO₄) was added to terminate the reactions. Colorimetric signals were generated and read at 450 nm using a plate reader (PE, Envision). The data were analyzed using GraphPad Prism5, and the IC₅₀ values were calculated.

EC50 [1]	IC50 [2]	Binder
0.394 nM	2.9 nM	B1
0.83 nM	2.5 nM	B2
105 nM	2.52 nM	B3
0.458 nM	2.79 nM	B4
415 nM	2.53 nM	B5
0.647 nM	2.88 nM	B6
0.487 nM	3.35 nM	B7
